Experiments:
Assay in all cases: purified protein
Conditions in all cases: pH 9.0, 30 °C, free enzyme, ammonium needed as activator
purified protein [1] = substrate: CCCCO; type: biochemical, Methylorubrum extorquens
purified protein [2] = substrate: CCCCCO; type: biochemical, Methylorubrum extorquens
purified protein [3] = substrate: CO; type: biochemical, Methylorubrum extorquens
purified protein [4] = substrate: CCO

B1: MDH-His6-tag (recombinant PQQ-dependent methanol dehydrogenase, PQQ-MDH) (Methylorubrum extorquens AM1) (protein)
chain: NDKLVELSKSDDNWVMPGKNYDSNNFSDLKQINKGNVKQLRPAWTFSTGLLNGHEGAPLVVDGKMYIHTSFPNNTFALGLDDPGTILWQDKPKQNPAARAVACCDLVNRGLAYWPGDGKTPALILKTQLDGNVAALNAETGETVWKVENSDIKVGSTLTIAPYVVKDKVIIGSSGAELGVRGYLTAYDVKTGEQVWRAYATGPDKDLLLASDFNIKNPHYGQKGLGTGTWEGDAWKIGGGTNWGWYAYDPGTNLIYFGTGNPAPWNETMRPGDNKWTMTIFGRDADTGEAKFGYQKTPHDEWDYAGVNVMMLSEQKDKDGKARKLLTHPDRNGIVYTLDRTDGALVSANKLDDTVNVFKSVDLKTGQPVRDPEYGTRMDHLAKDICPSAMGYHNQGHDSYDPKRELFFMGINHICMDWEPFMLPYRAGQFFVGATLNMYPGPKGDRQNYEGLGQIKAYNAITGDYKWEKMERFAVWGGTMATAGDLVFYGTLDGYLKARDSDTGDLLWKFKIPSGAIGYPMTYTHKGTQYVAIYYGVGGWPGVGLVFDLADPTAGLGAVGAFKKLANYTQMGGGVVVFSLDGKGPYDDPNVGEWKSAAK
notes: full-length mxaF ORF with leader peptide and C-terminal His6 tag, expressed from pCM160 in M. extorquens AM1; small subunit co-purified from host; Ni-NTA; PQQ and Ca2+; with Methanol dehydrogenase [cytochrome c] subunit 2
Work on B1 yielded a Km (purified protein [1]) of 1900 ± 200 µM, a Vmax (purified protein [1]) of 2.7 µmol/min/mg and a Km (purified protein [2]) of 1400 ± 100 µM. For the same protein, the Vmax (purified protein [2]) was 2.8 µmol/min/mg, the Km (purified protein [3]) was 360 ± 70 µM and the Vmax (purified protein [3]) was 4.2 µmol/min/mg. For the same protein, the Km (purified protein [4]) was 610 ± 60 µM and the Vmax (purified protein [4]) was 2.9 µmol/min/mg.
